Key:
CHO-A2 mCB2 = molecular target: T1, CHO-A2 mCB2 (Mus musculus, UniProt P47936); test: Western blot of cell lysates; format: binding; design: key: “−” no signal; “+”-“+++++” signal intensity; “+”-“+++++” signal intensity; “+”-“+++++” signal intensity; “+”-“+++++” signal intensity; “+”-“+++++” signal intensity; conditions: CHO-A2 mCB2 lysate
T1 construct: expressed in transfected cells
Procedure: (§1) The positive clones (Table 1) were further characterized by immunofluorescence (IF; Table 2), Western Blot (Table 3, 1) and Immune precipitation (Table 4, 2) on full length hCB2, hCB1, mCB2 stable-transfected CHO-cell lines in addition to the 2 pANITA constructs.
(§2) For Western blot analysis, cells were collected using enzyme free dissociation buffer (Cell dissociation buffer enzyme-free Hanks'-based, Gibco), and washed two times with PBS. To prepare cell lysate, 10^6 cells were lysed with 0.1 ml of lysis buffer (1% NP40, 10% glycerol, 2 mM EDTA, 137 mM NaCl, 20 mM TrisHCl, pH8, Protease Inhibitors) for 10 min on ice. The lysate was cleared by centrifugation at 20′000 g for 5 min. For SDS-PAGE cell lysate was resolved on precast 4-12% gradient gels (NuPAGE® Novex 4-12% Bis-Tris Gel, Invitrogen) with MES running buffer according to the manufacturer's directions. The separation of proteins was visualized by Colloidal Blue staining. The proteins were electrophoretically transferred to nitrocellulose membrane using a dry-blotting system (iBlot, Invitrogen). After blocking the membrane for 16 h in blocking buffer (5% Milk in PBS) at 4° C., specific proteins were detected with appropriate dilutions of mAbs in blocking buffer for 1 h at approximately 20° C. […]

CHODukx CRE hCB2 Cl.90 = molecular target: T2, CHODukx CRE hCB2 Cl.90 (Homo sapiens, UniProt P34972); test: Western blot of cell lysates; format: binding; design: key: “−” no signal; “+”-“+++++” signal intensity; “+”-“+++++” signal intensity; “+”-“+++++” signal intensity; “+”-“+++++” signal intensity; “+”-“+++++” signal intensity; conditions: CHODukx CRE hCB2 Cl.90 lysate
T2 construct: expressed in transfected cells
T2 sequence (P34972 whole entry): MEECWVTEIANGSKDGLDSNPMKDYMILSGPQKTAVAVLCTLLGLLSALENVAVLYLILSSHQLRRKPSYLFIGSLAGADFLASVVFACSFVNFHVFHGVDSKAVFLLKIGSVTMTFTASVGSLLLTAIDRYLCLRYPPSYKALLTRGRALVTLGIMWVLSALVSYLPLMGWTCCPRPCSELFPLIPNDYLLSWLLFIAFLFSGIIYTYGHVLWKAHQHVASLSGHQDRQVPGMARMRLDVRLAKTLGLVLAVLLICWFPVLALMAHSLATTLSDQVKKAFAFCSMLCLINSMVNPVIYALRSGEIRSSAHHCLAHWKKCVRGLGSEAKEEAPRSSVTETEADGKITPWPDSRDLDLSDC
Procedure: as §1, §2

T1 sequence (P47936 whole entry): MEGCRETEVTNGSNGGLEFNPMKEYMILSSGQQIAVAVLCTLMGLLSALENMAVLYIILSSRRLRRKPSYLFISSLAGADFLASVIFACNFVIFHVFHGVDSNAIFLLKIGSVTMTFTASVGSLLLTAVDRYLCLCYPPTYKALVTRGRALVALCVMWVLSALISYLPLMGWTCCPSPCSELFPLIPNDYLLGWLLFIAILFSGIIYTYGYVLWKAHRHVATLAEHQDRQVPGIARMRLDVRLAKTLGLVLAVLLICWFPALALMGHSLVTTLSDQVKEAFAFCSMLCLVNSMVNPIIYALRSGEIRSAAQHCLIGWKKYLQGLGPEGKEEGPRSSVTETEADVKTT

B1: hCB2-1/622: murine IgG3 monoclonal anti-human CB2 antibody, VH SEQ ID NO: 1, VL SEQ ID NO: 2, HC SEQ ID NO: 3, LC SEQ ID NO: 4 (antibody)
heavy: EVQLQQSGPELVKPGASVKISCKTSGYTFTEYTMHWVRQSHGKSLEWIGGIDRYNGDTYYNQKFKDKATLTVDRSSSTAYMELRSLTSEDSAVYFCARNGAMDYWGQGISVTVSSATTTAPSVYPLVPGCSDTSGSSVTLGCLVKGYFPEPVTVKWNYGALSSGVRTVSSVLQSGFYSLSSLVTVPSSTWPSQTVICNVAHPASKTELIKRIEPRIPKPSTPPGSSCPPGNILGGPSVFIFPPKPKDALMISLTPKVTCVVVDVSEDDPDVHVSWFVDNKEVHTAWTQPREAQYNSTFRVVSALPIQHQDWMRGKEFKCKVNNKALPAPIERTISKPKGRAQTPQVYTIPPPREQMSKKKVSLTCLVTNFFSEAISVEWERNGELEQDYKNTPPILDSDGTYFLYSKLTVDTDSWLQGEIFTCSVVHEALHNHHTQKNLSRSPGK
light: DVVMTQTPLSLPVSLGDQASISCRSSQSLVHSNGNTYLHWFLQKPGQSPKLLIYKVSIRFSGVPDRFSGSGSGTDFTLKISRVEAEDLGVYFCSQSTHVPPLTFGAGTKLELKRADAAPTVSIFPPSSEQLTSGGASVVCFLNNFYPKDINVKWKIDGSERQNGVLNSWTDQDSKDSTYSMSSTLTLTKDEYERHNSYTCEATHKTSTSPIVKSFNRNEC
In the case of B1, the “Western Blot signal intensity” value (CHO-A2 mCB2) is reported as “−” and the “Western Blot signal intensity” value (CHODukx CRE hCB2 Cl.90) is reported as “−”.

From patent US20260029420A1, “ANTI-CB2 ANTIBODIES AND THEIR USE IN A FLOW CYTOMETRY ASSAY TO MEASURE CELL SURFACE CB2 EXPRESSION” (Hoffmann-La Roche Inc., priority 2022, published 2026)
